Assay [1] has as its target A53T mutant α-synuclein (human) (UniProt P37840).
Assay [2] deals with A30P mutant α-synuclein (human) (UniProt P37840).
The target in assay [3] is Recombinant human α-synuclein (human) (UniProt P37840).
Assay [4] deals with Recombinant human β-synuclein (human) (UniProt Q16143). In words: SEC; Superose 12, 50 mM Tris/HCl pH 7.4, 100 mM NaCl, 1 mM EDTA, 5% glycerol, 0.5 ml/min; 20-50 µg per run; in vitro aged α-synuclein, β-synuclein or co-incubated mixtures; mass estimated from gel filtration standards.

As usually defined, the stoichiometry N is the number of molecules, sites or subunits per partner or assembly. As to “Recombinant human β-synuclein (from UniProt Q16143 1-134) (natural protein)”, the reduction of isoaspartate formed in A53T α-synuclein on co-incubation with approximately equimolar β-synuclein, 0-20 days of in vitro ageing (methanol diffusion assay); value after 20 days in assay [1] came out at 47.9%. In assay [2], the reduction of isoaspartate formed in A30P α-synuclein on co-incubation with approximately equimolar β-synuclein, 0-20 days of in vitro ageing (methanol diffusion assay); value after 20 days was 84.3%. Further, in assay [3], the reduction of isoaspartate formed in native α-synuclein on co-incubation with approximately equimolar β-synuclein, 0-20 days of in vitro ageing (methanol diffusion assay); value after 20 days was 72.2%. The stoichiometry N in assay [4] is 4.

Source of the values: paper PMC3632608.
